Reference: article PMC11197462 (Structure (London, England : 1993), 2023)

Tests used:
[1] = target: Fab favezelimab(mut); assay: SEC
[2] = target: human LAG3, four Ig-like extracellular domains (D1-D4; residues 1-449) (human, UniProt P18627); assay: SEC
Chain of human LAG3, four Ig-like extracellular domains (D1-D4; residues 1-449) (P18627 23-449): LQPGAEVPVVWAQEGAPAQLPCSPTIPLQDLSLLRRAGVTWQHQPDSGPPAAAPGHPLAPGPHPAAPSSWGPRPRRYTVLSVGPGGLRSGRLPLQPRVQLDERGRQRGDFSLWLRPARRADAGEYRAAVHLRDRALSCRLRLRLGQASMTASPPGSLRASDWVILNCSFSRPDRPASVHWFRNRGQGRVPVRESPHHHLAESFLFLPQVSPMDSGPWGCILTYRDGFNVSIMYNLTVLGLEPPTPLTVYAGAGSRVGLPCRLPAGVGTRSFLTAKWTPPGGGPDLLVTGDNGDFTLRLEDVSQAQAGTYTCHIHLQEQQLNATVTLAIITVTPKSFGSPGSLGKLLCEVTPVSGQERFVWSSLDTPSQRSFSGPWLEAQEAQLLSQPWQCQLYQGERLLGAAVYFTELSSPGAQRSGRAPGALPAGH

B1: Fab favezelimab(mut) (Fab, V domains shown)
VH: EVLLLQSGPELVKPGTSVKIPCKASGYTFTDYNVDWVKQRHGKGLEWIGDINPNNGGTIYSQKFKGKATLTVDKSSSTAFMELRSLTSEDTAVYFCARNYRWFGAMDHWGQGTSVTVSS
VL: DIVLTQSPASLAVSPGQRATISCKASQSLDYEGDSDMNWYQQKPGQPPRLLISGASNLESGIPARFSGSGSGTDFTVNIHPVEEEDAATYYCQQSTEDPRTFGGGTKLEIK
percent of the protein in the dimer peak [1]: 85% | stoichiometry N [1]: 2 | stoichiometry N [2]: 2
